Assay results: the DeepSol protein solubility set

Assay: soluble on expression in E. coli; label from the status in PepcDB or PDB records

Sequence	soluble on expression in E. coli
METTWDLTPLFPGLESPEFQRAWEGLKGRIGELKGLLEREAPLPEVLAALDAFLEEATPLRAYLYARYSADTRDEAALAKLSELEILFLDFQRLRPRLTRYLALKDPEEAGPHRLLVEEAKEEALHMMPEGEEVLAAELSLSGRAAWDKLHESLTSQITAVVDGEEMPITKVRNLYFHPEEEVRKKAYEAELKAWEAHEVPLAFALNGVKGEASVLNRRRGYRDDLEPTLHENRITRKALKAMQEAVGESLPLFRRYFLLKARALGKERLDWWDLFAPLGRGRRWSLEEARAFIPAKLAALVPNAAKVAEMAFHERWMDLLPRKGKVGGAYCMARGGGKSLILANYEESFESVSTLAHELGHAYHNFALKEAPASLRRVPMTLAETASIMNETLVVEAALKEASPEEGLLILDAYLQGAAQVVVDIHSRFLFESWVFQRRKARELSPREFKELMLKAQEEAYGEALATRHPYMWAVKGHYYGADFYNYPYTFGLLFGLAVYQEAKEDPGFAGRYEALLAESGRYRAKELALRFGFDLESVDFWRRGIRVLEEKVAQLERMISP	soluble
MENMIVIMAGGRSSRMGAEKPILKVNGKPMILRVYEESTKVGETLVAISKNTPKTRELCIKEGIPLIETPGEGYVEDVRYLLKELGSFVSVSADLPFVKACDIAEVKKAFDGKTSLTGVLPLSKVPTDLRPVVYKGYVIVGLNGVGFEGEKFYELSNPLLALNVNTPEELKLANRIAKLIG	soluble
SAEGSRGGPTCSGVGGRQDPVSGSGGCNFPEYELPELNTRAFHVGAFGELWRGRLRGAGDLSLREPPASALPGSQAADSDREDAAVARDLDCSLEAAAELRAVCGLDKLKCLEDGEDPEVIPENTDLVTLGVRKRFLEHREETITIDRACRQETFVYEMESHAIGKKPENSADMIEEGELILSVNILYPVIFHKHKEHKPYQTMLVLGSQKLTQLRDSIRCVSDLQIGGEFSNTPDQAPEHISKDLYKSAFFF	soluble
MGHHHHHHSHMGRCYNNIVIDASIEAVWQQIGNFHDMSWAKGVITSLVKVGPASGTEVGAKRILNDAIHETLVSLDSSNYTFTYSIDDGPDAIAKSAVDNYLGMVNLSESSTGVLVEWSSSFTSDNEKAVTEFCDP	not soluble
MGSDKIHHHHHHMSEENKIGTYQFVAEPFHVDFNGRLTMGVLGNHLLNCAGFHASDRGFGIATLNEDNYTWVLSRLAIELDEMPYQYEKFSVQTWVENVYRLFTDRNFAVIDKDGKKIGYARSVWAMINLNTRKPADLLALHGGSIVDYICDEPCPIEKPSRIKVTSNQPVATLTAKYSDIDINGHVNSIRYIEHILDLFPIELYQTKRIRRFEMAYVAESYFGDELSFFCDEVSENEFHVEVKKNGSEVVCRSKVIFE	not soluble
MKRLLILTALLPFVGFAQPINTLNNPNQPGYQIPSQQRMQTQMQTQQIQQKGMLNQQLKTQTQLQQQHLENQINNNSQRVLQSQPGERNPARQQMLPNTNGGMLNSNRNPDSSLNQQHMLPERRNGDMLNQPSTPQPDIPLKTIGP	soluble
MPYKAKSDLPDNVRNVLPAHAQDIYKEAFNSAWEQYKDKADRRDDASREETAHKVAWAAVKNDYEKGEDDKWHKKK	not soluble
MFKKLFGKGKEVQKDIAIYAPLTGEFVKIEDIPDPVFAQKMMGEGFGINPTEGEVVSPIAGRVDNVFPTKHAIGLKADNGLELLVHIGLDTVQLDGEGFEVLVSSGDEVNVGDPLVRFNLEYINNNAKSVISPIIITNTDQAASINIYDENAVIKGETKVIDVTMN	not soluble
MSLGEKMAIWRTKKPATKQKIVSDLQELGIKKGDTIIFHASMSKAHWICGGPVTVILALQELVGELGNIVMPAQTGQLSDPAKWENPPVPESWWKIIRRETPPFDPLVTPTRGMGVIAETFRTMPDVERSFHPYHSFCAWGKDKKQILANQPLAKSMGDESPLGKMYQLDAKIILFGVDNNNNTSLHLAEERSNAFPLIENQAAFLKNGEIIWEKYQEIDYNSEVFIALGRAYEKEHDFHPTTIIGAPTKIYDMRDLVDFGTKYFQTKNHEGHHHHHH	soluble
MLMIKGIIFDMDGVLFDTEPFYLRRREDFFKTKGIPIDHLNSKDFIGGNLQELWKELLGKNRDDAIVKAITTDYDAYKQAHKPPYQKLLITEVNSCLEQLEKQGIKLAVASNSKRQDVLLALETTQIKDYFEIILAREDVSRGKPYPDIYNKAVQKLGLQKKQLLVVEDSQKGIAAAKAANLTVFAITDYRYGIDQSQADHKIDHLGQLCVKIGCFGS	not soluble
MNDFSLELPVRTNKPRETGQSILIDNGYPLQFFKDAIAGASDYIDFVKFGWGTSLLTKDLEEKISTLKEHDITFFFGGTLFEKYVSQKKVNEFHRYCTYFGCEYIEISNGTLPMTNKEKAAYIADFSDEFLVLSEVGSKDAELASRQSSEEWLEYIVEDMEAGAEKVITEARESGTGGICSSSGDVRFQIVDDIISSDIDINRLIFEAPNKTLQQGFIQKIGPNVNLANIPFHDAIALETLRLGLRSDTFFLLEHHHHHH	not soluble
MPAGTRCVTQGEAEKNGMIPTGIFCDYQNGQEMYCYSEGKPDLVISDVWAYNTTPGVYSELRALVYNHGHGYAGKFSVAFFIDGSYVGEVEVNGLGANENTVARISYPHPCEGETDTFAAQVDYHNEVDEENENDNYHESPRIFQCSGGEMPNLEVVEAYIDYQDFCRALNYRNSSIVVVVANTGEQASPQTGGWIYIDGNSRGGFDIPSLQPGEETTISMNFPYMCEGSSDEIRVVVDSRNYVVESNENDNEYTFITDCIPMPSGTADLVVSYLETHVVEELLAGGLSYPLKSEINYTVENLGEDYSCNAEVGLFIDGVFQGQQYLPPLAPGDSITRTFIAKYDWERCSGISDTLTLKADVNNDVAESNENNNERSVTLYCIEYPLIKPDLTVEDVWIEGEGASNLDIVFTVKNIGLAASRATNAYVGVNYNPAGSTPIPPLNAGESVELRISGFTAQWQENTIEVCADSGNLVDEIPNEMNNCLTKTITIEDVGCYDGVRNRDEVGVDCGGYYCVPAALLRLKGDCSIRMTMAAGFQLEHHHHHH	not soluble
MSCQGPVCTNLGLKPGQRLTVKGIIAPNAKSFVMNLGKDSTHLGLHFNPRFDAHGDVNLIVCNSKKMEEWGTEQRETVFPFQKGAPIEITFSINPSDLTVHLPGHQFSFPNRLGLSVFDYFDTHGDFTLRSVSWE	soluble
DPRLARLLGLHTQSRSAIVQALWQYVKTNRLQDSHDKEYINGDKYFQQIFDCPRLKFSEIPQRLTALLLP	soluble
MGSDKIHHHHHHMNLKTTLFNTTYKFKDIKDVLAKANEKKSGDEMAGIAASGARERVAAKTVLADITLEELRNNPVVSYEKDEITRVIQDSVDEEQYKKIKALTVGEFREFLLENDEDKIKEIRDGLTSEMIAAVTKLMSNMDLVYAAQKICNTAKCNTTIGRRGTFSSRLQPNHPTDNPQGIMASLIDGISYGVGDAVIGLNPVADTIESVSDVLKVFNDFTRKWRIPTQNCVLAHITTQMEALKNGVPIDLMFQSIAGSEIANKDFGISVALLDEAYELMKTKKSSKGPNFMYFETGQGTELSSEGNNRADQLVMEARCYGLAKRYKPFLVNTVVGFIGPEYLYDGKQVIRAGLEDHFMGKLTGLSMGVDTCYTNHMKADQNDLENLAMLLLAANCNYLMGIPCGDDVMLMYQSSSYHDIATLREISDKRPIKEFEKRMEELGIMKNGKLTRNAGDPSIFM	not soluble
MRKIGLLFITIFCLLACKNNSSRISLEGEIKGLTNDTLYLYGTDALYDRIDTIYAEKGKFSYNLNIDSTVIDTLTTAVLLINGHVEYPVFLDKGNQITIKGNIDDLSYLDINGNEPNTSLSLFMKEQRGLGSASDKMMQEKAETFIRQHNSSLASVYLLDKYFVQTPQPDYIKIKEITEAMTGALLDRPYIENISDYIDQLEKVTVGKSAPYFSLPNEKGEKLSRSAERFRNRYLLLNFWASWCDPQPEANAELKRLNKEYKKNKNFAMLGISLDIDREAWETAIKKDTLSWDQVCDFTGLSSETAKQYAILTLPTNILLSPTGKILARDIQGEALTGKLKELLKTEEKKTGKSIR	not soluble
